This note sets out measurements from PMC1654158.

Assay [1] has as its target T1, Signal peptide peptidase (SPP) fluorescent fusion protein (CFP or YFP fused to the NH2- or COOH-terminus of SPP), Q8TCT9.
T1 chain: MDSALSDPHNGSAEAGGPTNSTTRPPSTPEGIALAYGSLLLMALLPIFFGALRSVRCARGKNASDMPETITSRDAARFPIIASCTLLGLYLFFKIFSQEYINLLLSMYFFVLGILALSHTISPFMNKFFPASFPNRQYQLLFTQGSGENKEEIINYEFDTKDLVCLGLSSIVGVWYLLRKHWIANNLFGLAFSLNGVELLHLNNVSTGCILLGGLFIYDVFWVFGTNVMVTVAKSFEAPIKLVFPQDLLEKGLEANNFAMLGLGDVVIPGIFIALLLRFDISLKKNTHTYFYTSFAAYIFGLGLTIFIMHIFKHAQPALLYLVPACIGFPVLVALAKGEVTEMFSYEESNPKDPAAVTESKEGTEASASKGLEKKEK
The experiment in a line: FRET or BRET; FLIM (fluorescence lifetime imaging microscopy) in live CHO cells co-transfected with CFP-SPP (donor) and YFP-SPP (acceptor) fusion constructs, 24 hours post-transfection, in Hank's Balanced Salt Solution; donor-only (empty vector) as negative control. As to conditions: remark: other sources report otherwise.

For assay [2], the target named is T2, Epitope tagged signal peptide peptidase (SPP): COOH-terminal V5 tagged SPP (SPPCTV5) and NH2-terminal FLAG tagged SPP (…), Q8TCT9.
T2 chain: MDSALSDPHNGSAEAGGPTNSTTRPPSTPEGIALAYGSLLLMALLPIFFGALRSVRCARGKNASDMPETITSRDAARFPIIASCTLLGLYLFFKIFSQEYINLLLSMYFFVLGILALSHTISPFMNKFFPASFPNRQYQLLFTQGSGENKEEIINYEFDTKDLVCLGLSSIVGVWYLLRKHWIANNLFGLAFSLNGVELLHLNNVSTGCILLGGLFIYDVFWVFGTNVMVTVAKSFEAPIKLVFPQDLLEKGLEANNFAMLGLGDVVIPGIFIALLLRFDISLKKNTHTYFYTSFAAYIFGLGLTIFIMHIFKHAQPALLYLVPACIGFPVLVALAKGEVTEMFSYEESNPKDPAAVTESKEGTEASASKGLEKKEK
The experiment in a line: FRET or BRET; FLIM in fixed (4% paraformaldehyde), permeabilised HEK cells stably overexpressing SPPCTV5 and …; goat anti-V5 labelled with Alexa 488 (donor), mouse anti-FLAG labelled with Cy3 (acceptor); cells expressing only SPPCTV5 as negative control. As to conditions: remark: other sources report otherwise. For orientation: In BRET a luciferase serves as donor, and the signal depends on an acceptor being close.

B1: Signal peptide peptidase (SPP) fluorescent fusion protein (CFP or YFP fused to the NH2- or COOH-terminus of SPP), Q8TCT9 1-377 (enzyme)
chain: MDSALSDPHNGSAEAGGPTNSTTRPPSTPEGIALAYGSLLLMALLPIFFGALRSVRCARGKNASDMPETITSRDAARFPIIASCTLLGLYLFFKIFSQEYINLLLSMYFFVLGILALSHTISPFMNKFFPASFPNRQYQLLFTQGSGENKEEIINYEFDTKDLVCLGLSSIVGVWYLLRKHWIANNLFGLAFSLNGVELLHLNNVSTGCILLGGLFIYDVFWVFGTNVMVTVAKSFEAPIKLVFPQDLLEKGLEANNFAMLGLGDVVIPGIFIALLLRFDISLKKNTHTYFYTSFAAYIFGLGLTIFIMHIFKHAQPALLYLVPACIGFPVLVALAKGEVTEMFSYEESNPKDPAAVTESKEGTEASASKGLEKKEK
In the case of B1, in assay [1], the CFP donor lifetime (donor CFP at COOH-terminus of SPP, acceptor YFP at COOH-terminus of SPP; donor only 2267 psec) was found to be 1490 psec; the CFP donor lifetime (donor CFP at NH2-terminus of SPP, acceptor YFP at COOH-terminus of SPP; donor only 2267 psec) was found to be 1530 psec; the CFP donor lifetime (donor CFP at NH2-terminus of SPP, acceptor YFP at NH2-terminus of SPP; donor only 2267 psec) turned out to be 1760 psec.

B2: Epitope tagged signal peptide peptidase (SPP): COOH-terminal V5 tagged SPP (SPPCTV5) and NH2-terminal FLAG tagged SPP (…), Q8TCT9 1-377 (enzyme)
chain: MDSALSDPHNGSAEAGGPTNSTTRPPSTPEGIALAYGSLLLMALLPIFFGALRSVRCARGKNASDMPETITSRDAARFPIIASCTLLGLYLFFKIFSQEYINLLLSMYFFVLGILALSHTISPFMNKFFPASFPNRQYQLLFTQGSGENKEEIINYEFDTKDLVCLGLSSIVGVWYLLRKHWIANNLFGLAFSLNGVELLHLNNVSTGCILLGGLFIYDVFWVFGTNVMVTVAKSFEAPIKLVFPQDLLEKGLEANNFAMLGLGDVVIPGIFIALLLRFDISLKKNTHTYFYTSFAAYIFGLGLTIFIMHIFKHAQPALLYLVPACIGFPVLVALAKGEVTEMFSYEESNPKDPAAVTESKEGTEASASKGLEKKEK
On to B2, for which, in assay [2], the Alexa 488 donor lifetime (donor Alexa 488 labeled SPPCTV5, acceptor Cy3 labeled …) amounted to 2200 psec and the Alexa 488 donor lifetime (donor Alexa 488 labeled SPPCTV5, acceptor Cy3 labeled …; donor only 2504 psec) turned out to be 1980 psec.
